Measurements published in paper PMC12713080.

Tests used:
[1] = molecular target: copper (Cu pull-down beads); test: copper pull-down, IB quantified; details: HEK293T cell lysate; mean+/-SD, n = 3; parent: est. 1.9; read off a plot
[2] = molecular target: copper (Cu-charged NTA beads); test: NTA-copper bead pull-down of purified protein, IB quantified; details: 0.5 h at 4 °C; washed with NETN buffer (20 mm Tris-HCl (PH 8.0), 300 mm NaCl, 0.5% NP-40, 1 mm EDTA) 5 times; mean+/-SD, n = 3; parent: est. 2.4; read off a plot

Substance	response [1]	response [2]
HA‐TAK1 (from UniProt O43318) H154A	1	
HA‐TAK1 (from UniProt O43318) H154A; M196A	0.95	
HA‐TAK1 (from UniProt O43318) M196A	0.8	
TAK1-N H154A; M196A		0.4
